The supplement of paper PMC7125110
± gives the standard error. Fewer inactive variants are shown than the library holds.

B1: glmS ribozyme (parent)
chain: AUAAAAGCGCCAGAACUACAGAAAUGUAGUUGACGAGGAGGAGGUUUAUCGAAUUUUCGGCGGAUGCCUCCAAA

How the values were obtained:
Conditions in all cases: with glucosamine-6-phosphate
[1] = variants of: B1; assay: self-cleavage kobs at 160 uM GlcN6P; higher = faster cleavage; RNA array
In short: (§1)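 Glucosamine-6-phosphate in HEPES/KCl/Mg(OAc)2 buffer, at 40 μM to 10 mM, was flowed over barcoded ribozyme variants transcribed in situ by E. coli RNA polymerase on sequenced MiSeq chips. Tracking was through a hybridised Cy3 probe at 37 °C. kobs, kcat and KM came from exponential decay fits and weighted Michaelis–Menten fits of normalised per-tile medians.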

[2] = variants of: B1; assay: self-cleavage kobs at 640 uM GlcN6P; higher = faster cleavage; RNA array
In short: as §1

[3] = variants of: B1; assay: self-cleavage kobs at 10000 uM GlcN6P; higher = faster cleavage; RNA array
In short: as §1

[4] = variants of: B1; assay: self-cleavage kobs at 2500 uM GlcN6P; higher = faster cleavage; RNA array
In short: as §1

Variant | self-cleavage kobs at 160 uM GlcN6P [1] | self-cleavage kobs at 640 uM GlcN6P [2] | self-cleavage kobs at 10000 uM GlcN6P [3] | self-cleavage kobs at 2500 uM GlcN6P [4]
A12G G38U U57C | < 1e-05 s⁻¹ | < 1e-05 s⁻¹ | < 1e-05 s⁻¹ | 
A14G C16U C34A G41A A52C | < 1e-05 s⁻¹ |  |  | < 1e-05 s⁻¹
U30C C50U U56C | < 1e-05 s⁻¹ | < 1e-05 s⁻¹ |  | 
A33U C50U G62C | < 1e-05 s⁻¹ | < 1e-05 s⁻¹ |  | < 1e-05 s⁻¹
A15U G32U G37A G62U | < 1e-05 s⁻¹ |  |  | 
U30C G35A A39C G40C C68A | < 1e-05 s⁻¹ | < 1e-05 s⁻¹ |  | 
G7A A48G | < 1e-05 s⁻¹ |  | < 1e-05 s⁻¹ | < 1e-05 s⁻¹
A36G G38C A42U G62A C67U C68A U69G | < 1e-05 s⁻¹ |  |  | 
A39C G44U U46C G60U G63C C68A C71A | < 1e-05 s⁻¹ | < 1e-05 s⁻¹ |  | < 1e-05 s⁻¹
A6G G44A C71A | < 1e-05 s⁻¹ | < 1e-05 s⁻¹ | < 1e-05 s⁻¹ | < 1e-05 s⁻¹
A14U G21A U56G | 0.00134 ± 0.00038 s⁻¹ | 0.0043 ± 0.0012 s⁻¹ |  | 0.00645 ± 0.0026 s⁻¹
A12G A36C U65A | < 1e-05 s⁻¹ | < 1e-05 s⁻¹ | < 1e-05 s⁻¹ | < 1e-05 s⁻¹
C8G U56A G62U | < 1e-05 s⁻¹ | < 1e-05 s⁻¹ |  | < 1e-05 s⁻¹
G38U A42U | < 1e-05 s⁻¹ | < 1e-05 s⁻¹ | < 1e-05 s⁻¹ | 
A15U G38C G43C G51U | < 1e-05 s⁻¹ | < 1e-05 s⁻¹ | < 1e-05 s⁻¹ | 
G35U A53U G60U | < 1e-05 s⁻¹ | < 1e-05 s⁻¹ |  | 
A48G A52C U55C | < 1e-05 s⁻¹ | < 1e-05 s⁻¹ |  | 
A15C G32C G38U | < 1e-05 s⁻¹ |  |  | 
G35U C71U | < 1e-05 s⁻¹ | < 1e-05 s⁻¹ | < 1e-05 s⁻¹ | < 1e-05 s⁻¹
G41A G60C | < 1e-05 s⁻¹ | < 1e-05 s⁻¹ | < 1e-05 s⁻¹ | 
C11G G13A G44U U69G | < 1e-05 s⁻¹ |  |  | < 1e-05 s⁻¹
G29A G60A | < 1e-05 s⁻¹ | < 1e-05 s⁻¹ |  | 
G35U U45G U46G A64G | < 1e-05 s⁻¹ | < 1e-05 s⁻¹ |  | < 1e-05 s⁻¹
A53C U56A G59C G63U | < 1e-05 s⁻¹ | < 1e-05 s⁻¹ |  | < 1e-05 s⁻¹
G60A C61U | < 1e-05 s⁻¹ | < 1e-05 s⁻¹ | < 1e-05 s⁻¹ | < 1e-05 s⁻¹
C61G G62A C67U C68A | 0.000136 ± 2.6e-05 s⁻¹ | 4.43e-05 ± 1.5e-05 s⁻¹ |  | 0.000107 ± 2.2e-05 s⁻¹

Variant | self-cleavage kobs at 160 uM GlcN6P [1] | self-cleavage kobs at 640 uM GlcN6P [2] | self-cleavage kobs at 10000 uM GlcN6P [3] | self-cleavage kobs at 2500 uM GlcN6P [4]
A6U C11G U30G U31A A42U | < 1e-05 s⁻¹ | < 1e-05 s⁻¹ |  | < 1e-05 s⁻¹
G32C G63U | < 1e-05 s⁻¹ | < 1e-05 s⁻¹ |  | 
G7U A12U C67U | < 1e-05 s⁻¹ | < 1e-05 s⁻¹ |  | 
A6U G32U | < 1e-05 s⁻¹ | < 1e-05 s⁻¹ |  | < 1e-05 s⁻¹
U30G G63A | < 1e-05 s⁻¹ | < 1e-05 s⁻¹ | < 1e-05 s⁻¹ | < 1e-05 s⁻¹
G44U C58A C71A | < 1e-05 s⁻¹ | < 1e-05 s⁻¹ |  | < 1e-05 s⁻¹
A14G A33G G60U | < 1e-05 s⁻¹ | < 1e-05 s⁻¹ |  | < 1e-05 s⁻¹
C10U U65G | < 1e-05 s⁻¹ |  |  | 
A12G U49A G63U | < 1e-05 s⁻¹ | < 1e-05 s⁻¹ |  | 
U31C G41A G59U | < 1e-05 s⁻¹ | < 1e-05 s⁻¹ |  | < 1e-05 s⁻¹
A14G U54C G60C A64G C70G | < 1e-05 s⁻¹ | < 1e-05 s⁻¹ |  | 
G38A A53C | < 1e-05 s⁻¹ |  |  | 
C8U U47C A48C C67G | < 1e-05 s⁻¹ | < 1e-05 s⁻¹ |  | < 1e-05 s⁻¹
A15C C16A C67U | 4.39e-05 ± 2.1e-05 s⁻¹ | 0.000115 ± 2.9e-05 s⁻¹ |  | 0.000111 ± 4e-05 s⁻¹
C11A G13U U47G A52C A53C | < 1e-05 s⁻¹ |  |  | 
A15G U31C U45C U49A | < 1e-05 s⁻¹ | < 1e-05 s⁻¹ |  | < 1e-05 s⁻¹
C11G U47A | < 1e-05 s⁻¹ | < 1e-05 s⁻¹ | < 1e-05 s⁻¹ | 
G32U A42C | < 1e-05 s⁻¹ | < 1e-05 s⁻¹ |  | < 1e-05 s⁻¹
G41U G51A | < 1e-05 s⁻¹ | < 1e-05 s⁻¹ | < 1e-05 s⁻¹ | < 1e-05 s⁻¹
G9C G51U | < 1e-05 s⁻¹ | < 1e-05 s⁻¹ | < 1e-05 s⁻¹ | 
A6C G41U C68U C70A | < 1e-05 s⁻¹ |  |  | 3.76e-05 ± 1.6e-05 s⁻¹
A12G G13C G29A C50G | 0.00168 ± 0.00066 s⁻¹ |  |  | 4.52e-05 ± 1.8e-05 s⁻¹
G9A A12G A14G G35U | < 1e-05 s⁻¹ |  |  | < 1e-05 s⁻¹
G7U G9C G59C U69G | < 1e-05 s⁻¹ | < 1e-05 s⁻¹ |  | 
G37A G60A G66U | < 1e-05 s⁻¹ |  |  | 
A6G U47C U55C C71U | < 1e-05 s⁻¹ | < 1e-05 s⁻¹ |  | < 1e-05 s⁻¹

Variant | self-cleavage kobs at 160 uM GlcN6P [1] | self-cleavage kobs at 640 uM GlcN6P [2] | self-cleavage kobs at 10000 uM GlcN6P [3] | self-cleavage kobs at 2500 uM GlcN6P [4]
G38A G41A C71A | < 1e-05 s⁻¹ |  |  | < 1e-05 s⁻¹
C8U A15U | < 1e-05 s⁻¹ | < 1e-05 s⁻¹ |  | < 1e-05 s⁻¹
G7C A36G A39G C67U | < 1e-05 s⁻¹ | < 1e-05 s⁻¹ |  | < 1e-05 s⁻¹
A14U G43A G63U C68U | < 1e-05 s⁻¹ |  |  | < 1e-05 s⁻¹
A6G A12U A36C G43C | < 1e-05 s⁻¹ | < 1e-05 s⁻¹ |  | < 1e-05 s⁻¹
C8G G35A | < 1e-05 s⁻¹ |  | < 1e-05 s⁻¹ | 
C16G A52C | < 1e-05 s⁻¹ |  |  | < 1e-05 s⁻¹
U31C A52U C71G | < 1e-05 s⁻¹ |  |  | 
A15G U31A G35U C67G | < 1e-05 s⁻¹ | < 1e-05 s⁻¹ |  | < 1e-05 s⁻¹
C16U G32U C70A | < 1e-05 s⁻¹ |  |  | 
A14C C34A A48C C61G | < 1e-05 s⁻¹ |  | < 1e-05 s⁻¹ | < 1e-05 s⁻¹
A39C G60C | < 1e-05 s⁻¹ |  | < 1e-05 s⁻¹ | 
C16G G41U U54A | < 1e-05 s⁻¹ |  |  | 
C8A C10U | < 1e-05 s⁻¹ | < 1e-05 s⁻¹ |  | 
G7A A15U | < 1e-05 s⁻¹ |  |  | 
C8A C16U U31C G38A U56C | < 1e-05 s⁻¹ |  | < 1e-05 s⁻¹ | 
A42C G44A U49C | < 1e-05 s⁻¹ | < 1e-05 s⁻¹ |  | < 1e-05 s⁻¹
G35C A39U U49G C50G | < 1e-05 s⁻¹ |  |  | < 1e-05 s⁻¹
G51U G60C C70U | < 1e-05 s⁻¹ | < 1e-05 s⁻¹ |  | 
C10A U55A C67G | 6.55e-05 ± 3e-05 s⁻¹ | 0.000418 ± 0.00019 s⁻¹ |  | 
A12G A14C G60C | < 1e-05 s⁻¹ | < 1e-05 s⁻¹ |  | 
C50G G59U | 7.49e-05 ± 1.3e-05 s⁻¹ | 0.000241 ± 8.6e-05 s⁻¹ |  | 0.000355 ± 0.0001 s⁻¹
C11A A36U U56A C68G C70A | 6.51e-05 ± 2.8e-05 s⁻¹ | 0.000823 ± 0.0003 s⁻¹ | 4.16e-05 ± 1.8e-05 s⁻¹ | 
G7C U45A | < 1e-05 s⁻¹ | < 1e-05 s⁻¹ | < 1e-05 s⁻¹ | < 1e-05 s⁻¹
G7C C16G | < 1e-05 s⁻¹ | < 1e-05 s⁻¹ | < 1e-05 s⁻¹ | 
C16U G40C U47G | 6.77e-05 ± 2.5e-05 s⁻¹ | 0.000145 ± 2e-05 s⁻¹ |  | 0.000389 ± 9.2e-05 s⁻¹

Variant | self-cleavage kobs at 160 uM GlcN6P [1] | self-cleavage kobs at 640 uM GlcN6P [2] | self-cleavage kobs at 10000 uM GlcN6P [3] | self-cleavage kobs at 2500 uM GlcN6P [4]
A42G C50G A64G | < 1e-05 s⁻¹ |  |  | 
G51C U56C | < 1e-05 s⁻¹ | < 1e-05 s⁻¹ | < 1e-05 s⁻¹ | < 1e-05 s⁻¹
C34U G43U C50A G51U U55G | < 1e-05 s⁻¹ |  |  | 
G29A G35C | < 1e-05 s⁻¹ | < 1e-05 s⁻¹ | < 1e-05 s⁻¹ | < 1e-05 s⁻¹
A14C G40U G59U C61U | < 1e-05 s⁻¹ |  |  | 
A33C U45G U55C U57C A64U | < 1e-05 s⁻¹ | < 1e-05 s⁻¹ |  | < 1e-05 s⁻¹
A48C U55A G66C | < 1e-05 s⁻¹ |  |  | 
C10A A14G | < 1e-05 s⁻¹ |  | 3.58e-05 ± 1.1e-05 s⁻¹ | 
G32U G60U | < 1e-05 s⁻¹ | < 1e-05 s⁻¹ |  | < 1e-05 s⁻¹
A36C U49A C70U | 4.96e-05 ± 2e-05 s⁻¹ |  |  | 
C11G A14C U31G A33U | < 1e-05 s⁻¹ | < 1e-05 s⁻¹ |  | < 1e-05 s⁻¹
C16U U65A U69A | 3.44e-05 ± 1.7e-05 s⁻¹ | 0.000105 ± 2.4e-05 s⁻¹ | 2.63e-05 ± 1.2e-05 s⁻¹ | 4.97e-05 ± 1.7e-05 s⁻¹
A39U A42G G60U | < 1e-05 s⁻¹ | < 1e-05 s⁻¹ |  | 
C16A G59U C68G | 0.000107 ± 3e-05 s⁻¹ |  |  | 
C8U G35C C70G | < 1e-05 s⁻¹ |  |  | 
A39C U57G C71A | < 1e-05 s⁻¹ | < 1e-05 s⁻¹ |  | < 1e-05 s⁻¹
C8A U30A G37U C58A | < 1e-05 s⁻¹ |  |  | 
G29C A48C G62U | < 1e-05 s⁻¹ | < 1e-05 s⁻¹ |  | < 1e-05 s⁻¹
A15G U46G G66A C68U | 6.94e-05 ± 1.7e-05 s⁻¹ | 0.000307 ± 0.00014 s⁻¹ |  | 0.00078 ± 0.00029 s⁻¹
G7U G41U G59U A64G | < 1e-05 s⁻¹ |  | < 1e-05 s⁻¹ | < 1e-05 s⁻¹
G9C U46G C67G | < 1e-05 s⁻¹ |  |  | 
A6U G38U U47G | < 1e-05 s⁻¹ |  |  | 
G7U U47A A52C A53U U55G C61U | < 1e-05 s⁻¹ | < 1e-05 s⁻¹ |  | < 1e-05 s⁻¹
C34U G63A G66U | < 1e-05 s⁻¹ | < 1e-05 s⁻¹ |  | 
C34U U56G | < 1e-05 s⁻¹ |  |  | < 1e-05 s⁻¹
A12U A15G C16U U31G C71U | 0.000195 ± 6.7e-05 s⁻¹ | 0.000442 ± 0.00015 s⁻¹ |  | 0.000331 ± 0.0001 s⁻¹
